According to patent US9896495 (ZEALAND PHARMA A S, dated 2018):
*1 amine or outer side, *2 acyl side, *3 side chain or, on linkers, in order; H or OH if unused. Side-chain parts run from the residue outwards. [ ]: non-standard residue; d: D form. The star is where a group is joined. C18 diacid = O=C(O)CCCCCCCCCCCCCCCCC(=O)*; γGlu = O=C(O)[C@H](CCC(=O)[*:2])N[*:1]; Ac4c = NC1(C(=O)O)CCC1; Aib = CC(C)(N)C(=O)O

T1: endogenous GLP-1 receptor of a murine insulinoma cell line (murine, UniProt O35659 22-463)
T1 sequence (looked up): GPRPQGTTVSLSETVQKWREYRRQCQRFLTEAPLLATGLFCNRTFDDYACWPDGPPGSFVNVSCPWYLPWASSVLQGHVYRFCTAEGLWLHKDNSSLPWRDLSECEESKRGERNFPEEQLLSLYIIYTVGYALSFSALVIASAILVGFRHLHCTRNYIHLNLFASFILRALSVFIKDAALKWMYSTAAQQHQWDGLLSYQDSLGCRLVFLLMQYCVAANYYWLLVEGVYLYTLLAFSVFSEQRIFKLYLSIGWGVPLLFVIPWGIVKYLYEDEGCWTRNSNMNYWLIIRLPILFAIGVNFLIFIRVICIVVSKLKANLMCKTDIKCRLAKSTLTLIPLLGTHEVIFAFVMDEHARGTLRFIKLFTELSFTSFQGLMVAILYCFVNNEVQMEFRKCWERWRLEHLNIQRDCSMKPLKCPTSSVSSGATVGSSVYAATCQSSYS


Key:
Assay in all cases: cell-based or functional assay
[1] = target: endogenous glucagon receptor of primary rat hepatocytes (rat, UniProt P30082 27-485)
[2] = target: T1, endogenous GLP-1 receptor of a murine …
[3] = target: human glucagon-like peptide 1 receptor (GLP-1R) (human, UniProt P43220 24-463)
[4] = target: human glucagon receptor (Glucagon-R) (human, UniProt P47871 26-477)
Sequence of human glucagon receptor (Glucagon-R) (P47871 26-477): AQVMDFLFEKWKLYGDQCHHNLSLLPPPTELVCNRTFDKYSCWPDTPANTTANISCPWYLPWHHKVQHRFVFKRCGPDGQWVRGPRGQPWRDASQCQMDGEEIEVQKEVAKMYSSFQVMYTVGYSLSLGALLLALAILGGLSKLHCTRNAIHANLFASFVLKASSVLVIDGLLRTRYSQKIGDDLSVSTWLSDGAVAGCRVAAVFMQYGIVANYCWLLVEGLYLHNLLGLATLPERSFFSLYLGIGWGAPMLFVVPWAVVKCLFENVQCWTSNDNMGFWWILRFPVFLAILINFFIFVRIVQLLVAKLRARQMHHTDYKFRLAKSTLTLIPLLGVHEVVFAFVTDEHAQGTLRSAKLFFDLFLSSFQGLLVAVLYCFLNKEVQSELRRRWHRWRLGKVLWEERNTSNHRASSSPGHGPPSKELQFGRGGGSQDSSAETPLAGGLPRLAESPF

Sequence of endogenous glucagon receptor of primary rat hepatocytes (P30082 27-485): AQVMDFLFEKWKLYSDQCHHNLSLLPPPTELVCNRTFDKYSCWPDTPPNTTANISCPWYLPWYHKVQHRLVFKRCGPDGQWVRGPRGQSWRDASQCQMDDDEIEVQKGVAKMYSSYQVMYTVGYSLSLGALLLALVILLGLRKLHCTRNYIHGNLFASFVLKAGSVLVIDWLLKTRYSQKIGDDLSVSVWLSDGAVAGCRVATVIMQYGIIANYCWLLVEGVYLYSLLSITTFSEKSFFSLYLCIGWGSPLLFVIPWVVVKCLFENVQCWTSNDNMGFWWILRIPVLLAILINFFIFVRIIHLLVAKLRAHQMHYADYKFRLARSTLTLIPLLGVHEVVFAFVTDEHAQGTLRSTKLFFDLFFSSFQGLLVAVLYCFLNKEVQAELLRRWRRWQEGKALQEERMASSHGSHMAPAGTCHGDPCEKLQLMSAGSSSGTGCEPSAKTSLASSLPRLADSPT

| Binder | EC50 [nM] (inhibition of glycogen synthesis rate in primary rat hepatocytes) [1] | EC50 [nM] (cAMP in a murine insulinoma cell line) [2] | EC50 hGLP-1R CHO-K1 [nM] (cAMP, AlphaScreen) [3] | EC50 hGCGR CHO-K1 [nM] (cAMP, AlphaScreen) [4] |
| --- | --- | --- | --- | --- |
| HXQGTFTSDYSKYLDERRAKDFIKWLESA (Ac4c at position 2; Lys 24 side chain conjugated to [17-carboxy-heptadecanoyl]-isoGlu-GSGSGG; C-terminal amide) [H-H-Ac4c-QGTFTSDYSKYLDERRAKDFI-K([17-carboxy-heptadecanoyl]-isoGlu-GSGSGG)-WLESA-NH2] | 0.19 | 0.38 | 0.6 | 0.18 |
| H-H[Ac4c]QGTFTSDYSKYLDEK([Peg3-Peg3-γGlu-C18 diacid])RAKDFIEWLESA-NH2 [H-H-Ac4c-QGTFTSDYSKYLDE-K([17-carboxy-heptadecanoyl]-isoGlu-Peg3-Peg3)-RAKDFIEWLESA-NH2] | 1.79 | 0.4 | 0.7 | 0.45 |
| HXQGTFTSDYSKYLDSKAAHDFVEWLLSA (Aib at position 2; Lys 17 side chain conjugated to [15-carboxy-pentadecanoyl]-isoGlu; C-terminal amide) [H-H-Aib-QGTFTSDYSKYLDS-K([15-carboxy-pentadecanoyl]-isoGlu)-AAHDFVEWLLSA-NH2] | 0.85 | 0.6 | 0.38 | 0.21 |
| HXQGTFTSDYSKYLDERAAKDFIKWLESA (Aib at position 2; Lys 24 side chain conjugated to [17-carboxy-heptadecanoyl]-isoGlu-GSGSGG; C-terminal amide) [H-H-Aib-QGTFTSDYSKYLDERAAKDFI-K([17-carboxy-heptadecanoyl]-isoGlu-GSGSGG)-WLESA-NH2] | 0.94 | 0.15 | 0.7 | 1.48 |
| HXQGTFTSDYSKYLDERAAKDFIEWLEKA (Ac4c at position 2; Lys 28 side chain conjugated to [17-carboxy-heptadecanoyl]-isoGlu-GSGSGG; C-terminal amide) [H-H-Ac4c-QGTFTSDYSKYLDERAAKDFIEWLE-K([17-carboxy-heptadecanoyl]-isoGlu-GSGSGG)-A-NH2] | 3.63 | 0.25 | 0.61 | 0.92 |
| HXQGTFTSDYSKYLDEKAAKDFIEWLESA (Aib at position 2; Lys 17 side chain conjugated to [17-carboxy-heptadecanoyl]-isoGlu; C-terminal amide) [H-H-Aib-QGTFTSDYSKYLDE-K([17-carboxy-heptadecanoyl]-isoGlu)-AAKDFIEWLESA-NH2] | 1.53 | 0.6 | 0.41 | 1.08 |
| HXQGTFTSDYSKYLDKRAAKDFIEWLESA (Ac4c at position 2; Lys 16 side chain conjugated to [17-carboxy-heptadecanoyl]-isoGlu-GSGSGG; C-terminal amide) [H-H-Ac4c-QGTFTSDYSKYLD-K([17-carboxy-heptadecanoyl]-isoGlu-GSGSGG)-RAAKDFIEWLESA-NH2] | 0.34 | 0.47 | 0.97 | 0.11 |
| H-H[Ac4c]QGTFTSDYSKYLDERAAKDFIKWLESA-NH2 (not fully specified (residue 24)) [H-H-Ac4c-QGTFTSDYSKYLDERAAKDFI-K([17-carboxy-heptadecanoyl]-isoGlu-GSGSGG)-WLESA-NH2] | 0.43 | 0.37 | 0.33 | 0.52 |
| H-H[Aib]QGTFTSDYSKYLDK([Peg3-Peg3-γGlu-C18 diacid])RAAKDFIEWLESA-NH2 [H-H-Aib-QGTFTSDYSKYLD-K([17-carboxy-heptadecanoyl]-isoGlu-Peg3-Peg3)-RAAKDFIEWLESA-NH2] | 0.11 | 0.69 | 1.76 | 0.13 |
| HXQGTFTSDYSKYLDKRAAKDFIEWLESA (Aib at position 2; Lys 16 side chain conjugated to [17-carboxy-heptadecanoyl]-isoGlu-GSGSGG; C-terminal amide) [H-H-Aib-QGTFTSDYSKYLD-K([17-carboxy-heptadecanoyl]-isoGlu-GSGSGG)-RAAKDFIEWLESA-NH2] | 0.21 | 0.65 | 0.83 | 0.18 |
| H-H[Ac4c]QGTFTSDYSKYLDEK([γGlu-C18 diacid])AAKDFIEWLESA-NH2 (SMILES CC[C@H](C)[C@H](NC(=O)[C@H](Cc1ccccc1)NC(=O)[C@H](CC(=O)O)NC(=O)[C@H](CCCCN)NC(=O)[C@H](C)NC(=O)[C@H](C)NC(=O)[C@H](CCCCNC(=O)CC[C@H](NC(=O)CCCCCCCCCCCCCCCCC(=O)O)C(=O)O)NC(=O)[C@H](CCC(=O)O)NC(=O)[C@H](CC(=O)O)NC(=O)[C@H](CC(C)C)NC(=O)[C@H](Cc1ccc(O)cc1)NC(=O)[C@H](CCCCN)NC(=O)[C@H](CO)NC(=O)[C@H](Cc1ccc(O)cc1)NC(=O)[C@H](CC(=O)O)NC(=O)[C@H](CO)NC(=O)[C@@H](NC(=O)[C@H](Cc1ccccc1)NC(=O)[C@@H](NC(=O)CNC(=O)[C@H](CCC(N)=O)NC(=O)C1(NC(=O)[C@@H](N)Cc2c[nH]cn2)CCC1)[C@@H](C)O)[C@@H](C)O)C(=O)N[C@@H](CCC(=O)O)C(=O)N[C@@H](Cc1c[nH]c2ccccc12)C(=O)N[C@@H](CC(C)C)C(=O)N[C@@H](CCC(=O)O)C(=O)N[C@@H](CO)C(=O)N[C@@H](C)C(N)=O) [H-H-Ac4c-QGTFTSDYSKYLDE-K([17-carboxy-heptadecanoyl]-isoGlu)-AAKDFIEWLESA-NH2] | 0.95 | 0.72 | 0.56 | 0.28 |
| H-H[Aib]QGTFTSDYSKYLEK([Peg3-Peg3-γGlu-C18 diacid])RAAHDFIEWLESA-NH2 [H-H-Aib-QGTFTSDYSKYLE-K([17-carboxy-heptadecanoyl]-isoGlu-Peg3-Peg3)-RAAHDFIEWLESA-NH2] | 0.29 | 0.36 | 0.8 | 0.31 |
| H-H[Ac4c]HGTFTSDYSKYLDEK([Peg3-Peg3-γGlu-C18 diacid])RAKDFIEWLESA-NH2 [H-H-Ac4c-HGTFTSDYSKYLDE-K([17-carboxy-heptadecanoyl]-isoGlu-Peg3-Peg3)-RAKDFIEWLESA-NH2] | 0.11 | 0.84 | 0.97 | 0.07 |
| HXQGTFTSDYSKYLEKRAAKDFIEWLESA (Aib at position 2; Lys 16 side chain conjugated to [17-carboxy-heptadecanoyl]-isoGlu-GSGSGG; C-terminal amide) [H-H-Aib-QGTFTSDYSKYLE-K([17-carboxy-heptadecanoyl]-isoGlu-GSGSGG)-RAAKDFIEWLESA-NH2] | 0.8 | 0.54 | 1.43 | 0.44 |
| HXQGTFTSDYSKYLDERRAKDFIEWLEKA (Ac4c at position 2; Lys 28 side chain conjugated to [17-carboxy-heptadecanoyl]-isoGlu-GSGSGG; C-terminal amide) [H-H-Ac4c-QGTFTSDYSKYLDERRAKDFIEWLE-K([17-carboxy-heptadecanoyl]-isoGlu-GSGSGG)-A-NH2] | 0.19 | 0.34 | 0.53 | 0.16 |
| H-H[Ac4c]QGTFTSDYSKYLDEK([γGlu-C18 diacid])RAKDFIEWLESA-NH2 (SMILES CC[C@H](C)[C@H](NC(=O)[C@H](Cc1ccccc1)NC(=O)[C@H](CC(=O)O)NC(=O)[C@H](CCCCN)NC(=O)[C@H](C)NC(=O)[C@H](CCCNC(=N)N)NC(=O)[C@H](CCCCNC(=O)CC[C@H](NC(=O)CCCCCCCCCCCCCCCCC(=O)O)C(=O)O)NC(=O)[C@H](CCC(=O)O)NC(=O)[C@H](CC(=O)O)NC(=O)[C@H](CC(C)C)NC(=O)[C@H](Cc1ccc(O)cc1)NC(=O)[C@H](CCCCN)NC(=O)[C@H](CO)NC(=O)[C@H](Cc1ccc(O)cc1)NC(=O)[C@H](CC(=O)O)NC(=O)[C@H](CO)NC(=O)[C@@H](NC(=O)[C@H](Cc1ccccc1)NC(=O)[C@@H](NC(=O)CNC(=O)[C@H](CCC(N)=O)NC(=O)C1(NC(=O)[C@@H](N)Cc2c[nH]cn2)CCC1)[C@@H](C)O)[C@@H](C)O)C(=O)N[C@@H](CCC(=O)O)C(=O)N[C@@H](Cc1c[nH]c2ccccc12)C(=O)N[C@@H](CC(C)C)C(=O)N[C@@H](CCC(=O)O)C(=O)N[C@@H](CO)C(=O)N[C@@H](C)C(N)=O) [H-H-Ac4c-QGTFTSDYSKYLDE-K([17-carboxy-heptadecanoyl]-isoGlu)-RAKDFIEWLESA-NH2] | 0.45 | 0.81 | 0.48 | 0.07 |
